This is an account of results in patent US20230212305A1 (published 2023).

The target in experiment [1] is T1, cynomolgus ABCG2 (Macaca fascicularis) (UniProt Q5MB13 1-654).
T1 chain: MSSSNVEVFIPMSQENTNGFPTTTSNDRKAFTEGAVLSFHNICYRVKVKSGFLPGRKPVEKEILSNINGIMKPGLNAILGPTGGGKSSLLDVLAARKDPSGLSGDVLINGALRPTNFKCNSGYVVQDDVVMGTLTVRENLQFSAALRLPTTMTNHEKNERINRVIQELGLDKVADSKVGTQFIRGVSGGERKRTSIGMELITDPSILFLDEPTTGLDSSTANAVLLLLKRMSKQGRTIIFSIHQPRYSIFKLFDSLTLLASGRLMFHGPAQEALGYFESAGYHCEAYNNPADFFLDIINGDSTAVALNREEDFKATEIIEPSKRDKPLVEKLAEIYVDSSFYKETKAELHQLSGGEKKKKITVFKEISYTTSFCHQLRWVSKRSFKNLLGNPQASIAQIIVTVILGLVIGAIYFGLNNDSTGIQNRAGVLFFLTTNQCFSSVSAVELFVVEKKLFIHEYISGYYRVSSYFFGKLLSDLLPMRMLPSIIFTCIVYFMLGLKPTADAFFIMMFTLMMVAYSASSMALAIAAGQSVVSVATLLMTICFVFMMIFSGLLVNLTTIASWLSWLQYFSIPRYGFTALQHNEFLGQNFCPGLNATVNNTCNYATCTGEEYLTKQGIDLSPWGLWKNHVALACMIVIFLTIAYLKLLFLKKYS
Nature of the experiment: FACS binding to 293T cells.

In experiment [2] the target is T2, human ABCG2 (UniProt Q9UNQ0 1-655).
T2 chain: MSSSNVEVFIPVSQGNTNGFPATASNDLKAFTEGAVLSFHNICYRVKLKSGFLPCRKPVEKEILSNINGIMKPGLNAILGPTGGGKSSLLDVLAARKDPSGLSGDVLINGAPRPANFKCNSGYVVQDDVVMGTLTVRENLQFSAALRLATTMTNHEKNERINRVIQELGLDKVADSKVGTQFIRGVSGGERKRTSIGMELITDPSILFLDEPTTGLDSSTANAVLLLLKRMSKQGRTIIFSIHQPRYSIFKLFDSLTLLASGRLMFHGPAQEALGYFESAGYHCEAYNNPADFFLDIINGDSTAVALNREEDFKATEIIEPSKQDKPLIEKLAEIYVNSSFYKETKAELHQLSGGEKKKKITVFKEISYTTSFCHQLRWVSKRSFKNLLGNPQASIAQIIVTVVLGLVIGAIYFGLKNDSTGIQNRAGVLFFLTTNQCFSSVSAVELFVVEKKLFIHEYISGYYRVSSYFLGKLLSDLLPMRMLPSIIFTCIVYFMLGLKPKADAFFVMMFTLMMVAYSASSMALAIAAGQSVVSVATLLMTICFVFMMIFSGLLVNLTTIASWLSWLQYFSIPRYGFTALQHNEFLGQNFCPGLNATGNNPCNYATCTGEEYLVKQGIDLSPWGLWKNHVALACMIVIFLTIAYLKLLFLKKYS
The experiment is described as follows: FACS binding to 293T cells.

In experiment [3] the target is T1, cynomolgus ABCG2 (Macaca fascicularis). The experiment is described as follows: cell binding.
Experiment [4] addresses T2, human ABCG2. Nature of the experiment: cell binding.
The target of a further experiment is G2_418. Nature of the experiment: FACS binding to 293T cells.
Another experiment addresses G2_639. The experiment is described as follows: FACS binding to 293T cells.
In another experiment the target is G2_745. The experiment is described as follows: FACS binding to 293T cells.
Another experiment deals with G2_377. Nature of the experiment: FACS binding to 293T cells.
The next experiment has as its target G2_336. Nature of the experiment: FACS binding to 293T cells.
A further experiment addresses G2_709. The experiment is described as follows: FACS binding to 293T cells.
The target in another experiment is G2_656. Nature of the experiment: FACS binding to 293T cells.
The target of a further experiment is G2_620. The experiment is described as follows: FACS binding, 293T-G2OX cells.
Experiment [5] has as its target h5D3. The experiment is described as follows: FACS binding, 293T-G2OX cells.
For a further experiment, the target named is KNJY-G2-333H. Nature of the experiment: FACS cell binding.
Experiment [6] has as its target h5D3. Nature of the experiment: FACS cell binding.
Experiment [7] addresses h5D3. The experiment is described as follows: FACS cell binding. This is another data set of the same source.

B1: G2.643 mouse (antibody, V domains shown)
VH: VNLVESGPELVKPGTSVKISCKASGYRFTSYYVHWVKQRPGQGLEWIGWIFPGSDNTKYNEKFKGKATLTADTSSSTAYMQLSSLTSEDSAVYFCASIYYGYDGTLYFDYWGQGTSVTVSS
VL: DIVMTQSHTFMSTSVGDRVSVTCKASQNVGNNVAWYQQKPGQSPNALIYSASYRYSGVPDRFTGSGSGTDFTLTISNVQSEDLAEYFCQQYDRYPLTFGGGTKLEIK
On to B1, for which the Kd in experiment [1] was 0.0171 µM; in the experiment with human ABCG2 [2], 0.0059 µM. Further, the EC50 in [3] worked out at 0.065 µM; with human ABCG2 [4], 0.027 µM.

B2: hG2 (other)
chain: T2 chain
For B2, the Kd with G2_418 amounted to 0.059 µM; with G2_639, 0.0468 µM; with G2_745 it was 0.0233 µM; with G2_377, 0.0167 µM; with G2_336 it was 0.0282 µM; in the experiment with G2_709, 0.0206 µM. The results for the Kd with G2_656, in the experiment with G2_620 and with h5D3 [5] were 0.0368 µM, 0.0158 µM and 0.00299 µM, respectively.

B3: ABCG2 (other)
chain: T2 chain
For B3, the Kd with KNJY-G2-333H came to 0.0075 µM; with h5D3 [6] it was 0.081 µM; with h5D3 [7], 0.00312 µM.
